Data: patent US20110263014A1, “Cleavage of Nanog by Caspases Mediates the Differentiation of Embryonic Stem Cells” (BAYLOR COLLEGE OF MEDICINE, priority 2008, published 2011)

Experiments:
mouse ES cells = assay: colony formation at clonal density, alkaline phosphatase staining; format: cell-based; conditions: transfected mouse ES cells, 5000 cells/cm^2, with or without LIF, 3 days
caspase-9 = target: T1, caspase-9 (Homo sapiens, UniProt P55211); assay: cleavage of immunoprecipitated mNanog by recombinant caspase-9; format: biochemical; conditions: protein immunoprecipitated from ES cells
T1 sequence (P55211 1-416): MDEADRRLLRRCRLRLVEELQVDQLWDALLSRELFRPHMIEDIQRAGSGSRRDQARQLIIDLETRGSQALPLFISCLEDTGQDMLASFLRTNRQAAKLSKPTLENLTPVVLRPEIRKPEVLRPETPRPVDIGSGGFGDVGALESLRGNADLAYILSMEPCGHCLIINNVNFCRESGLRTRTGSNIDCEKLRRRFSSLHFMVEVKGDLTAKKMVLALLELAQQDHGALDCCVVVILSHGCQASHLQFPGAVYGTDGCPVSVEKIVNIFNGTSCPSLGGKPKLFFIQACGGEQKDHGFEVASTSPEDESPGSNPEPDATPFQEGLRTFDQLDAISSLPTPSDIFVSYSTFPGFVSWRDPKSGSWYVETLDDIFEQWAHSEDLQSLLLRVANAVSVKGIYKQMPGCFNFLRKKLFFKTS

B1: D67G mNanog: caspase cleavage-resistant mutant of mouse Nanog, mutation at position 67 (protein)
chain: MSVGLPGPHSLPSSEEASNSGNASSMPAVFHPENYSCLQGSATEMLCTEAASPRPSSEDLPLQGSPGSSTSPKQKLSSPEADKGPEEEENKVLARKQKMRTVFSQAQLCALKDRFQKQKYLSLQQMQELSSILNLSYKQVKTWFQNQRMKCKRWQKNQWLKTSNGLIQKGSAPVEYPSIHCSYPQGYLVNASGSLSMWGSQTWTNPTWSSQTWTNPTWNNQTWTNPTWSSQAWTAQSWNGQPWNAAPLHNFGEDFLQPYVQLQQNFSASDLEVNLEATRESHAHFSTPQALELFLNYSVTPPGEI
In the case of B1, the “number of undifferentiated (AP-positive) colonies” value (mouse ES cells) is reported as “substantially increased” and the “cleavage by caspase-9” value (caspase-9) is reported as “greatly diminished cleavage”.
